Results as given in patent publication US20020155503.

recombinant form of the human Syk enzyme
phosphorylation of library peptide, anti-phosphotyrosine ELISA (absorbance at 450 nm); preferred substrate of the sub-set (Tyr-Ser-Ile-Ile-Nle): Library Sub-Set 5 Tyr-Ser-Ile-Ile-Nle [SEQ ID No. 15] | phosphorylation of library peptide, anti-phosphotyrosine ELISA (absorbance at 450 nm); preferred substrate of the sub-set (Asp-Tyr-Glu-Glu-Val): Library Sub-Set 4 Asp-Tyr-Glu-Glu-Val [SEQ ID No. 14] | phosphorylation of library peptide, anti-phosphotyrosine ELISA (absorbance at 450 nm); preferred substrate of the sub-set (Asp-Glu-Glu-Asp-Tyr): Library Sub-Set 1 Asp-Glu-Glu-Asp-Tyr [SEQ ID No. 11] | phosphorylation of library peptide, anti-phosphotyrosine ELISA (absorbance at 450 nm); preferred substrate of the sub-set (Asp-Glu-Tyr-Glu-Asp): Library Sub-Set 3Asp-Glu-Tyr-Glu-Asp [SEQ ID No. 13] | phosphorylation of library peptide, anti-phosphotyrosine ELISA (absorbance at 450 nm); preferred substrate of the sub-set (Asp-Glu-Glu-Tyr-Asp): Library Sub-Set 2 Asp-Glu-Glu-Tyr-Asp [SEQ ID No. 12]
